From article PMC5142333, “The topology, structure and PE interaction of LITAF underpin a Charcot-Marie-Tooth disease type 1C” (BMC Biology, 2016)

Biological target: the molecule itself
Assay: SEC; Superdex 200 10/300 GL; recombinant LITAF constructs; wild type LITAF kept in detergent

B1: wild type LITAF (full length, recombinant) (natural protein, human, UniProt Q99732 1-161, looked up)
chain: MSVPGPYQAATGPSSAPSAPPSYEETVAVNSYYPTPPAPMPGPTTGLVTGPDGKGMNPPSYYTQPAPIPNNNPITVQTVYVQHPITFLDRPIQMCCPSCNKMIVSQLSYNAGALTWLSCGSLCLLGCIAGCCFIPFCVDALQDVDHYCPNCRALLGTYKRL
notes: Lipopolysaccharide-induced tumour necrosis factor-alpha factor (LITAF, SIMPLE), human, full length wild type; Kept soluble with detergent (1% DDM or 1% FC12 at lysis, 0.04% DDM or 0.125% FC12 afterwards); also called LITAF WT; full length wild type LITAF protein; source: C43(DE3) BL21 E. coli, purified in detergent (Ni-NTA, ULP1 cleavage, SEC; DDM or FC12); not shown: His6, N-terminal, cleaved; …
- binding result: binds
